Data: the Immune Epitope Database (IEDB)

What follows are sequences tested against HLA-A*02:01 (assay: IEDB peptide-MHC binding, cellular MHC/competitive/fluorescence; ≥ and ≤ were set here for values at or beyond the usual limits of such assays). Conditions: source organism: Human papillomavirus 16.

Sequence	IC50 [µM]
MLDLQPET	53.7
EYMLDLQPET	45.3
IRTLEDLLMGT	31.9
RTLEDLLMGT	66.9
ELQTTIHDI	36.9
TLHEYMLDLQP	19.4
YMLDLQPETTD	2.37
RTLEDLLMGTL	2.69
EDLLMGTLGIV	14.2
YMLDLQPE	8.07
TLEDLLMGT	64.6
